Key:
streptokinase, P00779 = molecular target: T1, streptokinase, P00779
T1 chain: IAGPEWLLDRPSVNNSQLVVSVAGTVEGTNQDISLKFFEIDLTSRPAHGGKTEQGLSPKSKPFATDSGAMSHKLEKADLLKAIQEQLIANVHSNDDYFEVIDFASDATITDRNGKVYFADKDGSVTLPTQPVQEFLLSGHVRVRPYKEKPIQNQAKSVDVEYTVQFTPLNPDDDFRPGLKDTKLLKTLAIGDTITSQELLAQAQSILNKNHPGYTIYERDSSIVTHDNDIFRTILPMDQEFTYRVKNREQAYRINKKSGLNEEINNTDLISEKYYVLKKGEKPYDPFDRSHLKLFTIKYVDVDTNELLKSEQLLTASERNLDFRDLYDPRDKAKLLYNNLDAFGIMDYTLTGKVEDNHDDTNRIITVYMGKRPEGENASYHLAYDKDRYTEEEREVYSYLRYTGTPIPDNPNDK

[1] = molecular target: T2, duckweed-produced human microplasminogen
T2 chain: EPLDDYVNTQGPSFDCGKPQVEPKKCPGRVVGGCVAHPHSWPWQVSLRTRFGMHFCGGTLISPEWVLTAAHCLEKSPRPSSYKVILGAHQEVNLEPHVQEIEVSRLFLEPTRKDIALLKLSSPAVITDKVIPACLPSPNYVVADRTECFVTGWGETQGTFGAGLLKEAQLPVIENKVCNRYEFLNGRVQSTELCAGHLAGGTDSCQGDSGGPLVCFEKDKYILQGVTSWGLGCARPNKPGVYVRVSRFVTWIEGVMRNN

B1: duckweed-produced human plasminogen (protein)
chain: KVYLSECKTGNGKNYRGTMSKTKNGITCQKWSSTSPHRPRFSPATHPSEGLEENYCRNPDNDPQGPWCYTTDPEKRYDYCDILECEEECMHCSGENYDGKISKTMSGLECQAWDSQSPHAHGYIPSKFPNKNLKKNYCRNPDRELRPWCFTTDPNKRWELCDIPRCTTPPPSSGPTYQCLKGTGENYRGNVAVTVSGHTCQHWSAQTPHTHNRTPENFPCKNLDENYCRNPDGKRAPWCHTTNSQVRWEYCKIPSCDSSPVSTEQLAPTAPPELTPVVQDCYHGDGQSYRGTSSTTTTGKKCQSWSSMTPHRHQKTPENYPNAGLTMNYCRNPDADKGPWCFTTDPSVRWEYCNLKKCSGTEASVVAPPPVVLLPDVETPSEEDCMFGNGKGYRGKRATTVTGTPCQDWAAQEPHRHSIFTPETNPRAGLEKNYCRNPDGDVGGPWCYTTNPRKLYDYCDVPQCAAPSFDCGKPQVEPKKCPGRVVGGCVAHPHSWPWQVSLRTRFGMHFCGGTLISPEWVLTAAHCLEKSPRPSSYKVILGAHQEVNLEPHVQEIEVSRLFLEPTRKDIALLKLSSPAVITDKVIPACLPSPNYVVADRTECFVTGWGETQGTFGAGLLKEAQLPVIENKVCNRYEFLNGRVQSTELCAGHLAGGTDSCQGDSGGPLVCFEKDKYILQGVTSWGLGCARPNKPGVYVRVSRFVTWIEGVMRNN
Q: With B1 as the protein, how does the “cleavage of the chromogenic substrate Glu-Phe-Lys-pNA at 405 nm” value (streptokinase, P00779) read?
A: For each of the seven transgenic lines tested, the activity level was closely correlated with the protein expression levels as determined by ELISA

Q: And the “streptokinase activity assay (cleavage of a chromogenic substrate, Coamatic plasminogen kit)” value (streptokinase, P00779)?
A: Activation with streptokinase also produced activated plasminogen

B2: tissue plasminogen activator (protein)
chain: SYQVICRDEKTQMIYQQHQSWLRPVLRSNRVEYCWCNSGRAQCHSVPVKSCSEPRCFNGGTCQQALYFSDFVCQCPEGFAGKCCEIDTRATCYEDQGISYRGTWSTAESGAECTNWNSSALAQKPYSGRRPDAIRLGLGNHNYCRNPDRDSKPWCYVFKAGKYSSEFCSTPACSEGNSDCYFGNGSAYRGTHSLTESGASCLPWNSMILIGKVYTAQNPSAQALGLGKHNYCRNPDGDAKPWCHVLKNRRLTWEYCDVPSCSTCGLRQYSQPQFRIKGGLFADIASHPWQAAIFAKHRRSPGERFLCGGILISSCWILSAAHCFQERFPPHHLTVILGRTYRVVPGEEEQKFEVEKYIVHKEFDDDTYDNDIALLQLKSDSSRCAQESSVVRTVCLPPADLQLPDWTECELSGYGKHEALSPFYSERLKEAHVRLYPSSRCTSQHLLNRTVTDNMLCAGDTRSGGPQANLHDACQGDSGGPLVCLNDGRMTLVGIISWGLGCGQKDVPGVYTKVTNYLDWIRDNMRP
Q: How did the “Western blot: production of the B chain of plasmin” value [1] turn out when B2 was run?
A: Western blot analysis confirmed the production of the B chain of plasmin following activation of duckweed-produced microplasminogen with either urokinase or tPA

B3: duckweed-produced human microplasminogen (protein)
chain: EPLDDYVNTQGPSFDCGKPQVEPKKCPGRVVGGCVAHPHSWPWQVSLRTRFGMHFCGGTLISPEWVLTAAHCLEKSPRPSSYKVILGAHQEVNLEPHVQEIEVSRLFLEPTRKDIALLKLSSPAVITDKVIPACLPSPNYVVADRTECFVTGWGETQGTFGAGLLKEAQLPVIENKVCNRYEFLNGRVQSTELCAGHLAGGTDSCQGDSGGPLVCFEKDKYILQGVTSWGLGCARPNKPGVYVRVSRFVTWIEGVMRNN
Q: How did the “activity following activation by streptokinase (chromogenic substrate assay as for plasminogen)” value (streptokinase, P00779) turn out when B3 was run?
A: The duckweed-produced microplasminogen showed some level of activity in the absence of streptokinase, and a significant increase in activity following activation by streptokinase

Source: patent US20050262592
